B1: LAR382: Full length recombinant D. uncinatum LAR polypeptide (SEQ ID NO: 29) with N-terminal T7 Tag, expressed in E. coli from pET3a (protein, listed as Desmodium uncinatum)
chain: MTVSGAIPSMTKNRTLVVGGTGFIGQFITKASLGFGYPTFLLVRPGPVSPSKAVIIKTFQDKGAKVIYGVINDKECMEKILKEYEIDVVISLVGGARLLDQLTLLEAIKSVKTIKRFLPSEFGHDVDRTDPVEPGLTMYKEKRLVRRAVEEYGIPFTNICCNSIASWPYYDNCHPSQVPPPMDQFQIYGDGNTKAYFIDGNDIGKFTMKTIDDIRTLNKNVHFRPSSNCYSINELASLWEKKIGRTLPRFTVTADKLLAHAAENIIPESIVSSFTHDIFINGCQVNFSIDEHSDVEIDTLYPDEKFRSLDDCYEDFVPMVHDKIHAGKSGEIKIKDGKPLVQTGTIEEINKDIKTLVETQPNEEIKKDMKALVEAVPISAMG
modifications: N-terminal T7 tag
B2: LAR: Leucoanthocyanidin reductase enzyme partially purified 2,360 fold from young leaves of Desmodium uncinatum (protein, listed as Desmodium uncinatum)
chain: B1 chain
B3: LAR317: Truncated recombinant LAR, amino acids 1-317 of SEQ ID NO: 29, with N-terminal RGS-6×His epitope, expressed in E. coli (protein, listed as Desmodium uncinatum)
chain: MTVSGAIPSMTKNRTLVVGGTGFIGQFITKASLGFGYPTFLLVRPGPVSPSKAVIIKTFQDKGAKVIYGVINDKECMEKILKEYEIDVVISLVGGARLLDQLTLLEAIKSVKTIKRFLPSEFGHDVDRTDPVEPGLTMYKEKRLVRRAVEEYGIPFTNICCNSIASWPYYDNCHPSQVPPPMDQFQIYGDGNTKAYFIDGNDIGKFTMKTIDDIRTLNKNVHFRPSSNCYSINELASLWEKKIGRTLPRFTVTADKLLAHAAENIIPESIVSSFTHDIFINGCQVNFSIDEHSDVEIDTLYPDEKFRSLDDCYEDFV
modifications: N-terminal RGS-6xHis tag

Tests used:
[1] = LAR enzyme activity of recombinant LAR protein in E. coli extracts (radio-HPLC); format: biochemical; conditions: bacterial protein extracts after induction, HPLC system IIa
Experimental: LAR was assayed essentially as described by Tanner and Kristiansen (1993). The standard assay contained in total volume of 100 μl assay buffer containing 10 mg glycerol, 10 μmol NaPi, 0.5 μmol NADPH, 0.1 μmol DDT, all adjusted to pH7 with NaOH, 0.25 nmol [^3H]-3,4-cis-leucocyanidin (1 μCi), or other suitable flavan-3,4-diol substrate (Table 2), and enzyme extract. The assay was initiated by the addition of an appropriate amount of enzyme extract and incubated at 30° C. for 30 min. The incubation was terminated by extraction with 0.2 ml ethyl acetate containing 10 nmol of unlabelled catechin as carrier. The ethyl acetate extracts were dried under a stream of nitrogen at room temperature. The residue was dissolved in 100 μl of water and analyzed by radio-HPLC using system II (see above and Table 2). In each radio-chromatogram of the assay mixtures derived from the leaf extracts referred to herein, only the substrate, 3-4-cis-leucocyanidin, or the product, catechin were detected.
The complete amino acid coding sequence of the LAR cDNA was introduced into the BamHI site of the pET3a expression vector to express the LAR382 polypeptide containing the 14 amino acid N-terminal T7 Tag. The resultant expression construct was then introduced into E. coli strain Rosetta(DE3) RARE/pLysS.
A truncated form of LAR comprising amino acids 1-317 was also introduced into the BamHI and HindIII sites of pQE30 expression vector to express the LAR317 polypeptide containing the 10 amino acid N-terminal RGS-6×His epitope. The resultant expression construct was then introduced into E. coli strain XL1 Blue.
Expression of the full length recombinant LAR382 protein, or the truncated form LAR317, was induced as described in the preceding Example. Bacterial protein extracts were assayed for LAR enzyme activity, essentially as described in Example 1.

[2] = Storage stability of partially purified LAR enzyme preparation; format: physicochemical; conditions: 2,360 fold purified concentrate mixed with equal volume of glycerol, stored at −20 C
Experimental: Fractions with LAR activity were combined and then concentrated to a final volume of 1 ml by applying nitrogen over a YM10 membrane (Amicon). The concentrate was mixed with an equal volume of glycerol and stored at −20 C.
The final yield of enzyme activity was 8.7% and purification was 2,360 fold.

Molecule | LAR enzyme activity (reduction of leucocyanidin to catechin) [1] | LAR enzyme activity (reduction of leucocyanidin to catechin) ([1]; listed as pET LAR382) | stability of LAR enzyme activity on storage [2] | LAR enzyme activity (reduction of leucocyanidin to catechin) ([1]; listed as pET LAR317)
B1 | catalysed the reduction of [4-^3H]-2,3-trans-3,4-cis-leucocyanidin | LAR activity sufficient to convert all of the leucocyanidin substrate into catechin |  | 
B2 |  |  | stable for up to one year | 
B3 | catalysed the reduction of [4-^3H]-2,3-trans-3,4-cis-leucocyanidin |  |  | LAR activity sufficient to convert all of the leucocyanidin substrate into catechin

From US7892803B2, “Gene and uses therefor to modify pasture qualities of crops” (Commonwealth Scientific and Industrial Research Organisation, priority 2001, dated 2011)
